Experimental data reported in patent US7098309.

Experiments:
[1] = biological target: recombinant hepatitis B surface antigen (rHBsAg) processed without redox buffer, with formalin, formulated on alum (Bulk Alum Product) (hepatitis B virus) (UniProt P03141); assay: AUZYME sandwich ELISA on alum-formulated rHBsAg; row label names the rHBsAg preparation (group B, no redox buffer)
[2] = biological target: recombinant hepatitis B surface antigen (rHBsAg) processed without redox buffer, with formalin, formulated on alum (Bulk Alum Product) (hepatitis B virus) (UniProt P03141); assay: AUZYME sandwich ELISA; row label names the rHBsAg batch (no redox buffer, with formalin, glass tank)
[3] = biological target: improved recombinant hepatitis B surface antigen (rHBsAg) refolded in GSH/GSSG redox buffer, with formalin, formulated on alum (Bulk Alum Product) (hepatitis B virus) (UniProt P03141); assay: AUZYME sandwich ELISA on alum-formulated rHBsAg; row label names the rHBsAg preparation (group B, with 1.0 mM GSH and 0.2 mM GSSG)
[4] = biological target: plasma-derived Dane particles (hepatitis B virus); assay: AUZYME sandwich ELISA on plasma-derived Dane particles
[5] = biological target: improved recombinant hepatitis B surface antigen (rHBsAg) refolded in GSH/GSSG redox buffer, formalin omitted, formulated on alum (hepatitis B virus) (UniProt P03141); assay: AUZYME sandwich ELISA; row label names the rHBsAg batch (redox buffer, no formalin, glass tank)
[6] = biological target: improved recombinant hepatitis B surface antigen (rHBsAg) refolded in GSH/GSSG redox buffer, with formalin, formulated on alum (Bulk Alum Product) (hepatitis B virus) (UniProt P03141); assay: AUZYME sandwich ELISA on alum-formulated rHBsAg; row label names the rHBsAg preparation (group A, with 1.0 mM GSH and 0.2 mM GSSG)
[7] = biological target: improved recombinant hepatitis B surface antigen (rHBsAg) refolded in GSH/GSSG redox buffer, with formalin, formulated on alum (Bulk Alum Product) (hepatitis B virus) (UniProt P03141); assay: AUZYME sandwich ELISA on alum-formulated rHBsAg; row label names the rHBsAg preparation (group C, with 1.0 mM GSH and 0.2 mM GSSG)
[8] = biological target: recombinant hepatitis B surface antigen (rHBsAg) processed without redox buffer, with formalin, formulated on alum (Bulk Alum Product) (hepatitis B virus) (UniProt P03141); assay: AUZYME sandwich ELISA on alum-formulated rHBsAg; row label names the rHBsAg preparation (group A, no redox buffer)
[9] = biological target: improved recombinant hepatitis B surface antigen (rHBsAg) refolded in GSH/GSSG redox buffer, with formalin, formulated on alum (Bulk Alum Product) (hepatitis B virus) (UniProt P03141); assay: AUZYME sandwich ELISA; row label names the rHBsAg batch (redox buffer, with formalin, glass tank)
[10] = biological target: improved recombinant hepatitis B surface antigen (rHBsAg) refolded in GSH/GSSG redox buffer, formalin omitted, formulated on alum (hepatitis B virus) (UniProt P03141); assay: AUZYME sandwich ELISA; row label names the rHBsAg batch (redox buffer, no formalin, stainless steel tank)
[11] = biological target: recombinant hepatitis B surface antigen (rHBsAg) processed without redox buffer, with formalin, formulated on alum (Bulk Alum Product) (hepatitis B virus) (UniProt P03141); assay: AUZYME sandwich ELISA on alum-formulated rHBsAg; row label names the rHBsAg preparation (group C, no redox buffer)

AUZYME monoclonal enzyme immunoassay antibodies: mouse monoclonal antibodies to hepatitis B surface antigen coated on beads, and mouse monoclonal Anti-HBsAg peroxidase conjugate (antibody)
IVRP (in vitro relative potency) (relative to reference rHBsAg = 1.0) [1]: 1.69
IVRP (in vitro relative potency) (relative to reference rHBsAg = 1.0) [2]: 2.51
IVRP (in vitro relative potency) (relative to reference rHBsAg = 1.0) [3]: 2.7
ELISA response (in vitro relative potency scale) (relative to reference rHBsAg = 1.0) [4]: 5
IVRP (in vitro relative potency) (relative to reference rHBsAg = 1.0) [5]: 4.62
IVRP (in vitro relative potency) (relative to reference rHBsAg = 1.0) [6]: 3.56
IVRP (in vitro relative potency) (relative to reference rHBsAg = 1.0) [7]: 2.47
IVRP (in vitro relative potency) (relative to reference rHBsAg = 1.0) [8]: 2.09
IVRP (in vitro relative potency) (relative to reference rHBsAg = 1.0) [9]: 4.32
IVRP (in vitro relative potency) (relative to reference rHBsAg = 1.0) [10]: 4.3
IVRP (in vitro relative potency) (relative to reference rHBsAg = 1.0) [11]: 1.44
